B1: engineered chaperonin protein SP4-1 (designed binder)
chain: DDDRIPASGIVIDRVGRDSNMPHVVKNAKIALIDSALEIKKTEIEAKVQISDPSKIQDFLNQETNTFKQMVEKIKKSGANVVLCADDYAHVAYDYLAKEGIYAVGYVTESDMEKLAKATGAKIVTDLDDLTPSVLGEAETVEERPWGNNKETYVMGCKGSVSHHHHHHSEQKLISEEDLLRLE
notes: Protein-level screening was 'similar to that for the HP6054 selections', that is, with a FLAG-tag vector and anti-FLAG-HRP detection; not shown: FLAG-tag from the expression vector upstream of the insertion site
B2: engineered chaperonin protein SP4-2 (designed binder)
chain: DDDRIPASGIVIVGHNKVPSMPRVVKNAKIALIDSALEIKKTEIEAKVQISDPSKIQDFLNQETNTFKQMVEKIKKSGANVVLCGYKNLTVAYEYLAKEGIYAVYHVDESDMEKLAKATGAKIVTDLDDLTPSVLGEAETVEERGTANAPATYVMGCKGSVSHHHHHHSEQKLISEEDLLRLE
notes: not shown: FLAG-tag from the expression vector upstream of the insertion site
B3: engineered chaperonin protein SP4-5 (designed binder)
chain: DDDRIPASGIVIARPGESAFMPDVVKNAKIALIDSALEIKKTEIEAKVQISDPSKIQDFLNQETNTFKQMVEKIKKSGANVVLCNGDQADVAYDYLAKEGIYAVHFVDESDMEKLAKATGAKIVTDLDDLTPSVLGEAETVEERKYTEGVPTYVMGCKGSVSHHHHHHSEQKLISEEDLLRLE
notes: also called engineered protein clone SP4-5; not shown: FLAG-tag from the expression vector upstream of the insertion site
B4: engineered rubredoxin protein G3 (designed binder)
chain: MAKWVCKICGYIYDEDAGFVEYYGHPNISPGTKFEELSRYVDGWTCPICSYGMPIFEKLED
notes: Engineered Pyrococcus furiosus rubredoxin
B5: engineered rubredoxin protein D7 (designed binder)
chain: MAKWVCKICGYIYDEDAGEDPGHRSRYISPGTKFEELTTGWTCPICRCTNSTTSTNCFEKLED
notes: Engineered Pyrococcus furiosus rubredoxin; No tags are stated for the assayed construct
B6: engineered rubredoxin protein F3 (designed binder)
chain: MAKWVCKICGYIYDEDAGFVEYYDDGVISPGTKFEELHTAWTCPICSCTYNPFEKLED
notes: as for B5

Columns and labels:
[1] = target: T1, human chorionic gonadotropin (human, UniProt P01215 25-116; P0DN86 21-165, biotinylated using an NHS-SS-biotin reagent (sites not given)); test: affinity ELISA, hCG immobilized, serial dilution of engineered protein
T1 construct: The target was biotinylated and immobilized on Neutravidin- or Streptavidin-coated strip plates; also called hCG
T1 sequence (P01215 25-116, chain 1 of 2, other chains not shown): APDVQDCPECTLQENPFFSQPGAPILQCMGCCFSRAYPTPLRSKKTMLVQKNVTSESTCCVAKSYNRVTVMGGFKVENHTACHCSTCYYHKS
Excerpt: A total of 192 plaques were screened from the PEG precipitated and non-PEG precipitated eluted phage of round three (FIG. 9). Screening at the phage and protein level was similar to that for the HP6054 selections. The screen identified three engineered chaperonin proteins that were solubly expressed in E. coli and could bind hCG. Both the PEG-precipitated and non-PEG-precipitated selections gave similar results. In these affinity ELISA assays, the engineered chaperonin was serially diluted and the ELISA signal was plotted as a function of engineered chaperonin concentration to determine EC₅₀s, as above. The following EC₅₀ values for the three engineered library proteins was measured: […]

[2] = target: T1, human chorionic gonadotropin; test: affinity ELISA, hCG immobilized, serial dilution of engineered rubredoxin
Excerpt: The method used to identify engineered rubredoxin proteins that bind to human chorionic gonadotropin (hCG) were the same as the method used to identify chaperonin proteins that bind to hCG described in Section 6.9.6, above. The method identified three engineered rubredoxin proteins that could bind hCG. In the affinity ELISA assays, the engineered rubredoxin was serially diluted and the ELISA signal was plotted as a function of engineered rubredoxin concentration to determine EC₅₀s, as above. The following EC₅₀ values for the three library proteins was measured: […]

Binder | EC50 [1] | EC50 [2]
B1 | 5400 nM | –
B2 | 48000 nM | –
B3 | 630 nM | –
B4 | – | 81 nM
B5 | – | 4000 nM
B6 | – | 35 nM

Reference: patent US20040009530A1 (ZYOMYX, published 2004)
